This is an account of results in patent US20170298096A1 (CANIMGUIDE THERAPEUTICS, published 2017).

The target in this assay is T1, His-tagged P3028 (human, not fully specified).
T1 construct: the tag is put first after 'PGE73=His-tag-P3028'; also called PGE73; not shown: His-tag
T1 peptide: {His‑tag}-VFDEFKPLVEEPQNLIK
The assay is described as follows: chip ELISA.

No end group written: not given here.

B1: P28R S11H (peptide)
peptide: KKLDTFFVKLHLFTER
B1 gave an ELISA signal of 535.

B2: P28R T5W (peptide)
peptide: KKLDWFFVKLSLFTER
The molecule B2 came in with an ELISA signal of 418.

B3: P28R T5S (peptide)
peptide: KKLDSFFVKLSLFTER
As to B3, the ELISA signal was 458.

B4: P28R S11Y (peptide)
peptide: KKLDTFFVKLYLFTER
Turning to B4, the ELISA signal is 402.

B5: P28R S11M (peptide)
peptide: KKLDTFFVKLMLFTER
B5 returned an ELISA signal of 744.

B6: P28R S11R (peptide)
peptide: KKLDTFFVKLRLFTER
Molecule B6 showed an ELISA signal of 333.

B7: P28R T14Y (peptide)
peptide: KKLDTFFVKLSLFYER
Molecule B7 displayed an ELISA signal of 270.

B8: P28R T5I (peptide)
peptide: KKLDIFFVKLSLFTER
B8: the ELISA signal came to 293.

B9: P28R T14V (peptide)
peptide: KKLDTFFVKLSLFVER
As for B9, the ELISA signal turned out to be 380.

B10: P28R S11T (peptide)
peptide: KKLDTFFVKLTLFTER
Molecule B10 displayed an ELISA signal of 520.

B11: P28R T5M (peptide)
peptide: KKLDMFFVKLSLFTER
In the case of B11, the ELISA signal was 475.

B12: P28R T14S (peptide)
peptide: KKLDTFFVKLSLFSER
On to B12, for which the ELISA signal is 369.

B13: P28R T5D (peptide)
peptide: KKLDDFFVKLSLFTER
The molecule B13 came in with an ELISA signal of 295.

B14: P28R T14I (peptide)
peptide: KKLDTFFVKLSLFIER
For the molecule B14, the ELISA signal came out at 375.

B15: P28R T14K (peptide)
peptide: KKLDTFFVKLSLFKER
As to B15, the ELISA signal was 259.

B16: P28R V8A (peptide)
peptide: KKLDTFFAKLSLFTER
The molecule B16 came in with an ELISA signal of 299.

B17: P28R V8E (peptide)
peptide: KKLDTFFEKLSLFTER
Molecule B17 gave an ELISA signal of 139.

B18: P28R S11N (peptide)
peptide: KKLDTFFVKLNLFTER
With B18, the ELISA signal was found to be 451.

B19: P28R T14L (peptide)
peptide: KKLDTFFVKLSLFLER
The molecule B19 showed an ELISA signal of 360.

B20: P28R T5H (peptide)
peptide: KKLDHFFVKLSLFTER
B20: the ELISA signal came out at 391.

B21: P28R T5V (peptide)
peptide: KKLDVFFVKLSLFTER
B21 returned an ELISA signal of 374.

B22: P28R S11V (peptide)
peptide: KKLDTFFVKLVLFTER
As for B22, the ELISA signal is 392.

B23: P28R T14H (peptide)
peptide: KKLDTFFVKLSLFHER
The molecule B23 showed an ELISA signal of 463.

B24: P28R T5N (peptide)
peptide: KKLDNFFVKLSLFTER
Take B24: the ELISA signal is 436.

B25: P28R T14D (peptide)
peptide: KKLDTFFVKLSLFDER
With B25, the ELISA signal turned out to be 159.

B26: P28R S11K (peptide)
peptide: KKLDTFFVKLKLFTER
Regarding B26, the ELISA signal is 323.

B27: P28R T14F (peptide)
peptide: KKLDTFFVKLSLFFER
B27 had an ELISA signal of 348.

B28: P28R T14M (peptide)
peptide: KKLDTFFVKLSLFMER
As for B28, the ELISA signal was found to be 501.

B29: P28R T14N (peptide)
peptide: KKLDTFFVKLSLFNER
Molecule B29 displayed an ELISA signal of 599.

B30: P28R S11Q (peptide)
peptide: KKLDTFFVKLQLFTER
For B30, the ELISA signal was found to be 768.

B31: P28R T14E (peptide)
peptide: KKLDTFFVKLSLFEER
With B31, the ELISA signal was 110.

B32: P28R S11W (peptide)
peptide: KKLDTFFVKLWLFTER
As to B32, the ELISA signal came to 324.

B33: P28R T14R (peptide)
peptide: KKLDTFFVKLSLFRER
With B33, the ELISA signal amounted to 264.

B34: P28R T14A (peptide)
peptide: KKLDTFFVKLSLFAER
For the molecule B34, the ELISA signal is 305.

B35: P28R T5Y (peptide)
peptide: KKLDYFFVKLSLFTER
B35 gave an ELISA signal of 425.

B36: P28R T5Q (peptide)
peptide: KKLDQFFVKLSLFTER
B36 displayed an ELISA signal of 535.

B37: P28R T14W (peptide)
peptide: KKLDTFFVKLSLFWER
Regarding B37, the ELISA signal was 374.

B38: P28R T5L (peptide)
peptide: KKLDLFFVKLSLFTER
As to B38, the ELISA signal was found to be 311.

B39: P28R T5R (peptide)
peptide: KKLDRFFVKLSLFTER
Take B39: the ELISA signal stood at 430.

B40: P28R T14Q (peptide)
peptide: KKLDTFFVKLSLFQER
Turning to B40, the ELISA signal is 301.

B41: P28R T5K (peptide)
peptide: KKLDKFFVKLSLFTER
The molecule B41 gave an ELISA signal of 237.

B42: P28R T5F (peptide)
peptide: KKLDFFFVKLSLFTER
Molecule B42 returned an ELISA signal of 290.

B43: P28R S11I (peptide)
peptide: KKLDTFFVKLILFTER
For the molecule B43, the ELISA signal came out at 289.

B44: P28R V8D (peptide)
peptide: KKLDTFFDKLSLFTER
As for B44, the ELISA signal came out at 122.

B45: P28R T5A (peptide)
peptide: KKLDAFFVKLSLFTER
Turning to B45, the ELISA signal came out at 346.

B46: P28R S11L (peptide)
peptide: KKLDTFFVKLLLFTER
Take B46: the ELISA signal was 213.

B47: P28R T5E (peptide)
peptide: KKLDEFFVKLSLFTER
B47 returned an ELISA signal of 341.
